Data taken from US10653749B2, “Targeting GIV-GEF-GI signaling for treating diverse diseases” (The Regents of the University of California, priority 2015, dated 2020).
Positions count from the first letter of the chain named. Names and notes keep the numbering of the source.

B1: TAT-GIV-CT-WT: Recombinant cell-permeable fusion of TAT-PTD, His and HA tags, linker and human GIV C-terminus (aa 1660-1870), wild type; SEQ ID NO: 2 (protein)
chain: MRGSHHHHHHGMASMTGGQQMGRDLYDDDDKDRWGSKLGYGRKKRRQRRRGGSTMSGYPYDVPDYAGSMGGSGHSGETLESRHHKIKTGSPGSEVVTLQQFLEESNKLTSVQIKSSSQENLLDEVMKSLSVSSDFLGKDKPVSCGLARSVSGKTPGDFYDRRTTKPEFLRPGPRKTEDTYFISSAGKPTPGTQGKIKLVKESSLSRQSKDSNPYATLPRASSVISTAEGTTRRTSIHDFLTKDSRLPISVDSPPAAADSNTTAASNVDKVQESRNSKSRSREQQSS
B2: TAT-GIV-CT-FA: GEF-deficient F1685A mutant of the TAT-GIV-CT peptide, dominant-negative; SEQ ID NO: 3 (protein)
chain: B1 chain with F101A

Assays:
[1] = system: GIV, IRS1 and Akt phosphorylation; assay: Metabolic insulin signaling in L6 cells by immunoblotting; format: cell-based, rat; conditions: TAT-transduced L6 myotubes; for phosphorylation of Akt in response to insulin: pS473; for phosphorylation of IRS1 in response to insulin: pY632-IRS1
Protocol: (§1) Transfection was carried out with GeneJuice (Novagen) for DNA plasmids or Oligofectamine (Invitrogen) for siRNA oligos according to manufacturer's protocols. Silencer negative Control scrambled (Scr) siRNA used as control was purchased from Ambion and the previously validated (Enomoto et al., 2005) GIV siRNA sequence used was custom-ordered from Dharmacon. For TAT-construct transduction, cells were incubated with 300-800 nM of the TAT-proteins for 30 min at 37° C. prior to three washes with PBS and addition of fresh growth media. For assays involving insulin (Novagen) stimulation of TAT-treated cells, such stimulation was carried out 90 min after transduction.
(§2) Unless otherwise indicated, serum starvation of cells for use in experiments involving insulin stimulation was carried out by growing cells overnight in the presence of no serum (i.e., 0% FBS) in the case of Cos7 and L6 cells, or in the presence of 0.2% FBS in the case of HeLa cells. To induce IR, cells were pre-treated with Sodium Palmitate (PA; Sigma-Aldrich) (0.5 mM, stock solution at 5 mM/5% FFA-free BSA in ethanol) or vehicle control (5% FFA-free BSA in ethanol) for 16 h. To reverse IR with TZDs, cells were treated with 50 μM Pioglitazone (Pio) (Sigma-Aldrich) or DMSO (vehicle control) for 18 h prior to stimulation with 100 nM insulin. Treatment with PKCθ pseudo-substrate inhibitor (Santa Cruz Biotechnologies) was performed at 10 μM for 16 h.
Protein samples for immunoblotting were run on SDS/PAGE gels and transferred onto PVDF membranes (Millipore). Membranes were blocked with PBS containing 5% non-fat milk (or with 5% BSA when probing for phosphorylated proteins) before incubation with primary antibodies. GIV was detected using rabbit anti-GIV coiled-coil (Millipore) (1:500); GIV-CT (Santa Cruz Biotechnologies) (1:500); phospho-Tyr1764-GIV (1:500) and phospho-Ser1689-GIV (21st Century Biochemicals) (1:250) antibodies. Other antibodies used in this work include rabbit polyclonal antibodies against Gαi3 (1:333), pan-GP (1:250) and phospho-IRS1 (1:500) from Santa Cruz Biotechnologies; and phospho-Akt (1:250); total Akt (1:250); phospho-ERK (1:250); phospho-AS160 (1:250); total InsRβ (1:500) and total IRS1 (1:500) from Cell signaling. Mouse monoclonal Abs against phospho-InsRβ (1:250), His (1:1000), β-tubulin (1:1000), GFP (1:500) from Santa Cruz Biotechnologies, and control IgG (Bio-Rad Laboratories) were commercially obtained. Goat anti-rabbit and goat anti-mouse Alexa Fluor 680 or IRDye 800 F(ab′)2 secondary antibodies were purchased from Li-Cor Biosciences. Images were processed with ImageJ software (NIH) and assembled as figure panels using Photoshop and Illustrator software (Adobe).

[2] = system: L6 myotubes; assay: Fluorometric 2-deoxyglucose uptake assay after insulin stimulation; format: cell-based, rat; conditions: for insulin-stimulated glucose uptake in the basal state: L6 myotubes without PA; for reversal of PA-induced IR (insulin stimulated glucose uptake): PA-treated L6 myotubes
Protocol: as §1, §2
Glucose uptake assays were performed without the use of radioisotopes as described previously (Yamamoto et al., 2006). HeLa and L6 cells grown in 6-well plates were stimulated with insulin in KRH Buffer [50 mM HEPES, 137 mM NaCl, 4.7 mM KCl, 1.85 mM CaCl2, 1.3 mM MgSO4, and 0.1% (w/v) BSA-FFA free, pH 7.4]. Cells were incubated with 1 mM 2-deoxyglucose (2-DG) for 20 min, washed, and subsequently lysed with 0.1 N NaOH. The lysates were transferred into eppendorf tubes and samples were incubated in a water bath maintained at 80° C. for 45 min to degrade endogenous NAD(P)H and NAD(P)^+. An equal volume each of 0.1 N HCl and Triethanolamine (200 mM TEA, pH 8.1) buffer were added to each tube. Samples were subsequently mixed with assay solution [50 mM TEA, 0.02% BSA-FFA free, 10 μM NAD(P)^+, 0.2 U/ml Diaphorase, 6 nM Resazurin sodium, 15 U/ml G6PDH (Santa Cruz Biotechnologies)] and incubated at 37° C. for 90 min. Fluorescence intensity (λex=550 nM, λem=590 nM) was determined using a Tecan Inifinite M1000 PRO and normalized to total protein, as determined using BCA assay (Thermo Scientific).

[3] = system: HeLa cells; assay: Scratch-wound 2D cell migration assay; format: cell-based; conditions: lysates 6 h post-wounding
[4] = system: L×2 human hepatic stellate cells; assay: L×2 myofibroblast (hepatic stellate cell) activation by TGFβ, qPCR and immunoblot; format: cell-based
Protocol: For measurement of collagen and αSMA mRNA levels in L×2 HSCs we followed the protocols exactly as before (59). Briefly, total RNA was isolated using an RNeasy kit (QIAGEN) as per the manufacturer's protocol. First-strand cDNA was synthesized using SuperScript II reverse transcriptase (Invitrogen), followed by ribonuclease H treatment (Invitrogen) before performing quantitative realtime PCR. Reactions omitting reverse transcriptase were performed in each experiment as negative controls. Reactions were then run on a real-time PCR system (ABI StepOnePlus; Applied Biosystems). Gene expression was detected with SYBR green (Invitrogen), and relative gene expression was determined by normalizing to GAPDH using the ΔΔT method. The sequences of primers used in this work are identical to what were used previously (59).
For TAT-protein transduction, cells were incubated with 400-800 nM of the TAT-proteins for 30 min at 37° C. prior to three washes with PBS and addition of fresh growth media. For analysis of EGF signaling, subconfluent monolayers of HeLa cells were treated with TAT proteins for 30 min, washed with PBS, and subsequently stimulated with EGF (50 nM) at 4 h after TAT transduction. For scratch-wound assays, HeLa monolayers were treated with TAT proteins before and at 12 h after wounding. For cancer cell invasion assays, highly invasive MDA MB 231 breast cancer cells were plated in 6-well dishes, treated with TAT-peptides for 30 min and subsequently lifted and placed in transwell chamber in the presence of serum-free media. For L×2 myofibroblast activation assays, cells were first treated with TAT-proteins for 30 min, starved in serum-free media, and subsequently treated with 1.5 ng/ml TGF-β for 24 h. TAT-protein transduction was repeated every 8 h during the course of TGFβ stimulation (total 3 treatments). […] In each case, whole cell lysates prepared from cells in duplicate wells were analyzed for signaling pathways and TAT-protein uptake by immunoblotting.

Molecule | phosphorylation of Akt in response to insulin [1] | phosphorylation of IRS1 in response to insulin [1] | insulin-stimulated glucose uptake in the basal state [2] | reversal of PA-induced IR (insulin stimulated glucose uptake) [2] | reversal of PA-induced IR (insulin stimulated glucose uptake) ([2]; listed as GIV-CT-WT) | effectiveness in reversing PA-induced IR compared with Pio ([2]; ~800 nM of WT peptide) | Akt activation during 2D cell migration [3] | EGFR autophosphorylation during 2D cell migration [3] | Akt activation during 2D cell migration ([3]; listed as WT) | EGFR autophosphorylation during 2D cell migration ([3]; listed as WT) | reduction of HSC activation (expression of α-SMA) ([4]; TGFβ 24 h, TAT every 8 h, qPCR) [%] | suppression of collagen production ([4]; TGFβ 24 h, TAT every 8 h, vs control and TAT-GIV-CT-WT, qPCR) [%] | TGFβ-SMAD cascade (phosphorylation of SMAD2/3) ([4]; immunoblot)
B1 | enhancement | enhancement | unaffected | effectively reverse | effectively reversed | as effective as 50 μM Pio | enhances | enhances | enhanced | enhanced |  |  | 
B2 | suppressed | suppressed | significantly inhibited | not |  |  | not | not |  |  | ~30 | ~70 | suppression
